{
  "source": "patent US20240424125A1",
  "about": "(Zymeworks, published 2024)",
  "binders": {"B1": {"name": "Palivizumab (anti-RSV) (v22277) (antibody, V domains shown)", "VH": "QVTLRESGPALVKPTQTLTLTCTFSGFSLSTSGMSVGWIRQPPGKALEWLADIWWDDKKDYNPSLKSRLTISKDTSKNQVVLKVTNMDPADTATYYCARSMITNWYFDVWGAGTTVTVSS", "VL": "DIQMTQSPSTLSASVGDRVTITCKCQLSVGYMHWYQQKPGKAPKLLIYDTSKLASGVPSRFSGSGSGTEFTLTISSLQPDDFATYYCFQGSGYPFTFGGGTKLEIK"}, "B2": {"name": "v35356 (antibody, human IgG1, kappa, V domains shown)", "VH": "EVQLLESGGGLVQPGGSLRLSCAVSGFSLSSYGVSWVRQAPGKGLEWIGAVNSGGSAYYADSFKGRSTISRDNSKNTVYLQMNSLRAEDTAVYYCARSGSGYPMDYHPIWGQGTLVTVSS", "VL": "DYQMTQSPSSVSASVGDRVTITCRASQSIGDWLAWYQQKPGKAPKLLIYEASTLASGVPSRFSGSGSGTDFTLTISSVQPEDAATYYCQQGYGRWHILNIFGGGTKVEVKR"}, "B3": {"name": "v32596 (antibody, V domains shown)", "VH": "QSVKESEGGLFKPTDTLTLTCTVSGFSLSSYGVSWVRQAPGNGLEWIGAVNSGGSAYYANWAKSRSTITRNTNLFTVTLKMTSLAVADTATYFCARSGSGYPMDYLAIWGPGTLVTVSS", "VL": "AYDMTQTPASVEVAVGGTVTIKCQASQSIGDWLAWYQQKPGQPPRLLIYEASTLASGVPSRFSGSGSGTQFTLTISGVECADAATYYCQQGYGRSNVDNIFGGGTEVVVK", "notes": "One-armed antibody (OAA) format, said to be the equivalent of the FSA v23924; also called OAA v23924 equivalent; one-armed antibody equivalent of v23924"}, "B4": {"name": "v32597 (antibody, V domains shown)", "VH": "B2 VH with F63V, H107L, P108A", "VL": "DYQMTQSPSSVSASVGDRVTITCRASQSIGDWLAWYQQKPGKAPKLLIYEASTLASGVPSRFSGSGSGTDFTLTISSVQPEDAATYYCQQGYGRSNVDNIFGGGTKVEVK", "notes": "One-armed antibody (OAA) format, equivalent of v30384; also called OAA v30384 equivalent; one-armed antibody equivalent of v30384"}, "B5": {"name": "v32598 (antibody, V domains shown)", "VH": "B2 VH with L4V, S62W, F63A, H107L, P108A", "VL": "B4 VL", "notes": "One-armed antibody (OAA) format, equivalent of v30399; also called OAA v30399 equivalent; one-armed antibody equivalent of v30399"}, "B6": {"name": "v30389 (antibody, human IgG1, kappa)", "heavy 1": "EVQVLESGGGLVQPGGSLRLSCAVSGFSLSSYGVSWVRQAPGKGLEWIGAVNSGGSAYYADSVKGRSTISRDNSKNTVYLQMNSLRAEDTAVYYCARSGSGYPMDYLAIWGQGTLVTVSSASTKGPSVFPLAPSSKSTSGGTAALGCLVKDYFPEPVTVSWNSGALTSGVHTFPAVLQSSGLYSLSSVVTVPSSSLGTQTYICNVNHKPSNTKVDKKVEPKSCDKTHTCPPCPAPELLGGPSVFLFPPKPKDTLMISRTPEVTCVVVDVSHEDPEVKFNWYVDGVEVHNAKTKPREEQYNSTYRVVSVLTVLHQDWLNGKEYKCKVSNKALPAPIEKTISKAKGQPREPQVYVYPPSRDELTKNQVSLTCLVKGFYPSDIAVEWESNGQPENNYKTTPPVLDSDGSFALVSKLTVDKSRWQQGNVFSCSVMHEALHNHYTQKSLSLSPG", "heavy 2": "not shown", "light": "DYQMTQSPSSVSASVGDRVTITCRASQSIGDWLAWYQQKPGKAPKLLIYEASTLASGVPSRFSGSGSGTDFTLTISSVQPEDAATYYCQQGYGRSNVDNIFGGGTKVEVKRTVAAPSVFIFPPSDEQLKSGTASVVCLLNNFYPREAKVQWKVDNALQSGNSQESVTEQDSKDSTYSLSSTLTLSKADYEKHKVYACEVTHQGLSSPVTKSFNRGEC", "notes": "Humanized IgG1/kappa, HetFc; also called 3bH4L"}, "B7": {"name": "v31423 (antibody, human IgG1, kappa, V domains shown)", "VH": "B2 VH with F63V, N73T, H107L, P108A", "VL": "B2 VL with W95S, H96N, I97V, L98D", "notes": "Humanized IgG1/kappa, HomoFc; also called 3dH4L"}, "B8": {"name": "v31424 (antibody, human IgG1, kappa)", "heavy": "not shown", "light": "B6 light", "notes": "Humanized IgG1/kappa, HomoFc; also called 3eH4L"}, "B9": {"name": "v31425 (antibody, human IgG1, kappa)", "heavy": "not shown", "light": "B6 light", "notes": "Humanized IgG1/kappa, HomoFc; also called 3fH4L"}, "B10": {"name": "v31422 (antibody, human IgG1, kappa)", "heavy": "not shown", "light": "B6 light", "notes": "Humanized IgG1/kappa, HomoFc; also called 3cH4L"}, "B11": {"name": "v35354 (antibody, human IgG1, kappa, V domains shown)", "VH": "B2 VH with S31L, H107L, P108A", "VL": "B2 VL with G30W, D31Y"}, "B12": {"name": "v35350 (antibody, human IgG1, kappa, V domains shown)", "VH": "B2 VH with S31L", "VL": "B2 VL with G30W, D31Y"}, "B13": {"name": "v35347 (antibody, human IgG1, kappa, V domains shown)", "VH": "B2 VH with S31L", "VL": "B2 VL with W95S, H96N, I97V, L98D"}, "B14": {"name": "v35342 (antibody, human IgG1, kappa, V domains shown)", "VH": "B2 VH with S31L, A50S, V51L, F63V, H107L, P108A", "VL": "B2 VL with G30W, D31Y"}, "B15": {"name": "v35358 (antibody, human IgG1, kappa, V domains shown)", "VH": "B2 VH", "VL": "B2 VL with G30W, D31Y"}, "B16": {"name": "v36167 (antibody, human IgG1, kappa, V domains shown)", "VH": "B2 VH with H107L, P108A", "VL": "B2 VL with G30W, D31Y"}, "B17": {"name": "v36168 (antibody, human IgG1, kappa, V domains shown)", "VH": "B2 VH with S31L, A50S, F63V, H107L, P108A", "VL": "B2 VL with G30W, D31Y"}},
  "note": "Substitutions are numbered along the chain they refer to.",
  "data": [
    {"molecular_target": "T1, human FRα on cells (human, UniProt P15328 25-234)", "T1 construct": "Transiently expressed on HEK293-6e, CHO-S or HEK293 microarray cells, or endogenous on JEG-3, HEC-1-A, IGROV-1, OVCAR-3, H2110, KB-HeLa and T-47D cells; also called human folate receptor alpha; FOLR1", "T1 sequence (P15328 25-234 limits assumed)": "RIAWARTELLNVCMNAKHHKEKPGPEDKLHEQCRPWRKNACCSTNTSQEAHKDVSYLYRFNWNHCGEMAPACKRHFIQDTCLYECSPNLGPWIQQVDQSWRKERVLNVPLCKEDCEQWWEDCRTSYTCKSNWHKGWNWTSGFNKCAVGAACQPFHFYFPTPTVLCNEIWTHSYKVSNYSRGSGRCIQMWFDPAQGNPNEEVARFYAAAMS", "assay": "apparent Kd, flow cytometry, CHO-S cells transiently expressing human FRα, 24 h at 4°C", "procedure": "Briefly, CHO-S cells were transfected for −24 hours to transiently express human or cynomolgus monkey FRα, 1 ug DNA per 1 million cells. Following transfection, cells were seeded at 50,000 cells/well in V-bottom 96-well plates and treated with antibody for 24 hours at 4° C. to prevent internalization. […] Following incubation and washing, fluorescence was detected by flow cytometry on a BD LSRFortessa™ Cell Analyzer (BD Biosciences, Franklin Lake, NJ).", "units": {"Kd": "nM"}, "values": [
      {"binder": "B1", "Kd": "> 50"}
    ]},
    {"molecular_target": "T1, human FRα on cells", "assay": "apparent Kd, flow cytometry on JEG-3 cells (endogenous FRα), as in Example 16", "procedure": "(§1) Briefly, cells were seeded at 50,000 cells/well in V-bottom 96-well plates and treated with antibody for 24 hours at 4° C. to prevent internalization. […] Following incubation and washing, fluorescence was detected by flow cytometry on a BD LSRFortessa™ Cell Analyzer (BD Biosciences, Franklin Lake, NJ) with 1,000 minimum events collected per well. AF647/APC-A GeoMean (fluorescence signal geometric mean, proportional to anti-Human AF647 binding) in live cell population was plotted using GraphPad Prism Version 9 (GraphPad Software, San Diego, CA).", "units": {"Kd": "nM"}, "values": [
      {"binder": "B2", "Kd": 0.44}
    ]},
    {"molecular_target": "T1, human FRα on cells", "assay": "apparent Kd, flow cytometry on IGROV-1 cells (endogenous FRα), as in Example 16", "procedure": "as §1", "units": {"Kd": "nM"}, "values": [
      {"binder": "B2", "Kd": 1.31}
    ]},
    {"molecular_target": "T2, recombinant His-tagged human FRα (ACROBiosystems) (human, UniProt P15328 25-233)", "T2 construct": "also called hFRα; hFRα antigen; not shown: His tag", "T2 sequence (P15328 25-233 limits assumed)": "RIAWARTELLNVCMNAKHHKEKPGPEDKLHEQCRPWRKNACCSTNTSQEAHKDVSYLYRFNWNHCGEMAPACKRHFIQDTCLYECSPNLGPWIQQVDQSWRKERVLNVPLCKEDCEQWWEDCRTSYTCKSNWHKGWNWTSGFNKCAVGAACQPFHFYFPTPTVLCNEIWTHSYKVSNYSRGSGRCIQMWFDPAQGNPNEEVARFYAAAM", "assay": "SPR (Biacore T200): hFRα amine-coupled to CM5 chip at medium antigen density, one-armed antibody injected, 1:1 Langmuir fit, mean of n=2", "procedure": "(§2) CM5 Series S sensor chip, Biacore™ amine coupling kit (NHS, EDC and 1 M ethanolamine), and 10 mM sodium acetate buffers were purchased from GE Healthcare Life Science (Mississauga, ON, Canada). PBS running buffer with 0.05% Tween20 (PBST) was purchased from Teknova Inc. (Hollister, CA). Recombinant human FRα was purchased from ACRObiosystems (Newark, DE).\n(§3) Screening of the variants for binding to hFRα antigen was conducted in two steps: capture of hFRα onto surface, followed by injection of three to five concentrations of variant. The hFRα surface was prepared on a CM5 Series S sensor chip by standard amine coupling methods as described by the manufacturer (GE Healthcare Life Science, Mississauga, ON, Canada). The immobilization of the hFRα was performed using Biacore™ T200 immobilization wizard with an amine coupling method aiming for resonance units (RUs) ranging from 5 to 200 RUs. Using multi-cycle kinetics, three to five concentrations of a two-fold dilution series of samples starting at 300 nM with a blank buffer control were injected at 50 uL/min for 180s with a 600s dissociation phase, resulting in a set of sensorgrams with a buffer blank reference. The hFRα surface was regenerated to prepare for the next injection cycle by one pulse of 10 mM glycine/HCl pH 1.5 for 30s at 30 uL/min. Blank-subtracted sensorgrams were analyzed using Biacore™ T200 Evaluation Software v3.0. The blank-subtracted sensorgrams were then fit to the 1:1 Langmuir binding model.", "units": {"Kd": "nM"}, "values": [
      {"binder": "B3", "Kd": 30.3},
      {"binder": "B4", "Kd": 139},
      {"binder": "B5", "Kd": 80.8}
    ]},
    {"molecular_target": "T2, recombinant His-tagged human FRα …", "assay": "BLI (Octet RED96): antibody on anti-human IgG Fc capture biosensor, His-tagged hFRα as analyte, 1:1 global fit, mean of n=2", "procedure": "(§4) The assay buffer used was KB buffer (kinetics buffer, composed of PBS pH 7.4, 0.1% BSA, 0.02% Tween 20, 0.05% sodium azide) supplemented with 0.06% Tween 20 and in some instances also with 1% BSA. The experiment was conducted at 30° C. with a shake speed of 1000 rpm.\n(§5) Data analysis was performed using Data Analysis Software 9.0 (ForteBio, Fremont CA). The reference-subtracted binding curves were globally fitted to the 1:1 interaction model to generate the binding kinetic parameters kₒₙ, koff, and the dissociation constant KD.", "units": {"Kd": "nM"}, "values": [
      {"binder": "B6", "Kd": 100},
      {"binder": "B7", "Kd": 110},
      {"binder": "B8", "Kd": 110},
      {"binder": "B9", "Kd": 160},
      {"binder": "B10", "Kd": 180}
    ]},
    {"molecular_target": "T2, recombinant His-tagged human FRα …", "assay": "BLI (Octet RED96) as in Example 8: antibody captured, His-tagged hFRα as analyte, mean of n=2", "procedure": "as §4, §5", "units": {"Kd": "nM"}, "values": [
      {"binder": "B11", "Kd": 3.13},
      {"binder": "B12", "Kd": 3.55},
      {"binder": "B13", "Kd": 8.65},
      {"binder": "B14", "Kd": 4.1},
      {"binder": "B15", "Kd": 7.22},
      {"binder": "B2", "Kd": 4.98},
      {"binder": "B16", "Kd": 7.29},
      {"binder": "B17", "Kd": 4.97}
    ]},
    {"molecular_target": "T2, recombinant His-tagged human FRα …", "assay": "SPR (Biacore T200): hFRα amine-coupled to CM5 chip at medium-low antigen density, one-armed antibody injected, 1:1 Langmuir fit, mean of n=2", "procedure": "as §2, §3", "units": {"Kd": "nM"}, "values": [
      {"binder": "B3", "Kd": 37.9},
      {"binder": "B4", "Kd": 146},
      {"binder": "B5", "Kd": 91.5}
    ]},
    {"molecular_target": "T2, recombinant His-tagged human FRα …", "assay": "SPR (Biacore T200): hFRα amine-coupled to CM5 chip at high antigen density, one-armed antibody injected, 1:1 Langmuir fit, mean of n=2", "procedure": "as §2, §3", "units": {"Kd": "nM"}, "values": [
      {"binder": "B3", "Kd": 30},
      {"binder": "B4", "Kd": 143},
      {"binder": "B5", "Kd": 82}
    ]}
  ]
}
